We go through four molecules from patent US20080274950A1 (BABRAHAM INSTITUTE, published 2008).

Numbering of substitutions follows the chain as printed. Names may count otherwise.

Series [1] concerns the target T1, full length chicken N-cadherin with the N-terminus extended by two glycine residues (GG) expressed on K562 … (chicken, UniProt P10288 165-912).
T1 construct: whole, on cells; also called cells expressing the GG N-terminal extension mutant; K562 GG
T1 sequence: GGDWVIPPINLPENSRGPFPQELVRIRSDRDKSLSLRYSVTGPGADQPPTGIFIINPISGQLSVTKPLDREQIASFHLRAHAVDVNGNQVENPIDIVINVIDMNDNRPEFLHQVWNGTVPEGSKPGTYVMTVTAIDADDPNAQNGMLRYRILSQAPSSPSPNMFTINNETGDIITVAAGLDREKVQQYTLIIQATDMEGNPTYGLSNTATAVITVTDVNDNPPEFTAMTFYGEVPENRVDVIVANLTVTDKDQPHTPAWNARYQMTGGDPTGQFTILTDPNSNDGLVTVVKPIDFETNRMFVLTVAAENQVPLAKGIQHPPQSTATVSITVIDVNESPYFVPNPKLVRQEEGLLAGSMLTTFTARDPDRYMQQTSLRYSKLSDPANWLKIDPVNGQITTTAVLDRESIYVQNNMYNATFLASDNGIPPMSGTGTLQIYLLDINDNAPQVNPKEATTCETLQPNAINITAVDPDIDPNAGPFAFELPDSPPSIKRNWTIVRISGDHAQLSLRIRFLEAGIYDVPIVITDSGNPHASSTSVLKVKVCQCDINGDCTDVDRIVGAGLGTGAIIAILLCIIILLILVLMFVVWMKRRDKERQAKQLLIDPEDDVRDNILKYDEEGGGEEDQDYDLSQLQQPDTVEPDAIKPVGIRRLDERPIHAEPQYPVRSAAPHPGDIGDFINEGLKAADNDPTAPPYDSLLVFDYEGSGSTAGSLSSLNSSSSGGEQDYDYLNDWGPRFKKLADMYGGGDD
The series can be described thus: adhesion of K562 transfectants to N-cadherin Fc coated at 1 µg/ml. The protocol:
(§1) Adhesion tests were conducted substantially as described in Example 1. Briefly, K562 Cells or L cells transfected with wild type or mutant N-cadherin were allowed to settle for 45 minutes at 37° C. onto N-cadherin Fc fusion proteins coated at 1 μg/ml to a 96 well plate. Non-adherent cells were then washed off and residual adherent cells were quantitated by measuring acid phosphatase activity. Assays were conducted in quadruplicate and results are expressed as % cells adhering +/−SEM.

Series [2] has as its target T2, full length chicken N-cadherin with the mutation E89A expressed on K562 cells (chicken, UniProt P10288 165-912, E89A).
T2 construct: whole, on cells; also called cells expressing the E89A mutation; K562 E89A
T2 sequence (looked up): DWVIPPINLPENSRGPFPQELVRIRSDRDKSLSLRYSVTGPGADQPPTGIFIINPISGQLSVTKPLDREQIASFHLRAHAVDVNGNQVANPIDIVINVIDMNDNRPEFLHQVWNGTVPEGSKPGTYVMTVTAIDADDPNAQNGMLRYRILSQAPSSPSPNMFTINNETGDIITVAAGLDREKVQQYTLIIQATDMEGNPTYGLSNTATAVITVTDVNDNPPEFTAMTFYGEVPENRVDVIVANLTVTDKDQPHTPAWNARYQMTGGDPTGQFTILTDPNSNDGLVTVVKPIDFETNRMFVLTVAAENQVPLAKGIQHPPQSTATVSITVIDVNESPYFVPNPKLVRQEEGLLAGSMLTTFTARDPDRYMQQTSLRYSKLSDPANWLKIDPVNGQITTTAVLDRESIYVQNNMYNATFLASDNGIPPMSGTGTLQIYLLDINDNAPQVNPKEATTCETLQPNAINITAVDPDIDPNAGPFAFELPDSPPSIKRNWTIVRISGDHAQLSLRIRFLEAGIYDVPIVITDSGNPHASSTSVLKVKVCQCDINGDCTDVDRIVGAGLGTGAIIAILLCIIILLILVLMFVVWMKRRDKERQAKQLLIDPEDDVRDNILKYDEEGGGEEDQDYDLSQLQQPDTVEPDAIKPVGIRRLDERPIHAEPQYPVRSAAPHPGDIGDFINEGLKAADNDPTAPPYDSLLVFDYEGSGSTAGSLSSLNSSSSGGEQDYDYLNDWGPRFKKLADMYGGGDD
In words: adhesion of K562 transfectants to coated N-cadherin Fc. On the procedure: as §1

Series [3] deals with the molecule itself. The series can be described thus: bead aggregation assay, 1.25 mM CaCl2. On the procedure:
(§2) Dynabeads (Dynal Biotech) coupled to Protein A were coated with N-cadherin Fc at 1 μg/ml in calcium and magnesium-free HBSS containing 0.1% Tween 20, 1% FCS and 4 mM EDTA. Eppendorf tubes containing beads and fusion protein were rotated slowly for 1 hour at room temperature to allow binding to take place. The beads were then washed in the above assay buffer lacking EDTA and then resuspended in the same buffer supplemented with 1.25 mM CaCl₂. Beads were allowed to aggregate in a volume of 100 μl for 2 hours at 37° C. by slow rotation, in an eppendorf tube, at approximately 20 rpm. Aggregation was then assessed by light microscopy.
In the experiments described so far in this example, disruption of the salt bridge prevented intramolecular docking of Trp 2 in one or both components of the dimer. In an alternative strategy to prevent intramolecular docking, we removed Trp2 by introducing the mutation W2G or blocked the hydrophobic acceptor pocket with an isoleucine side chain projecting into the cavity using the mutation A801. N-cadherin Fc fusion proteins with these mutations were then tested against our panel of K562 transfectants (FIG. 17a). In keeping with the explanation given in FIG. 5, the W2G mutant acted as a strand acceptor and therefore adhered strongly to the E89A mutant whereas the A80I mutant was a strand donor and adhered to the GG extension mutant. […] In contrast, beads coated with the W2G or A801 mutants and tested separately clustered in twos and threes, whereas beads coated with the negative control mutant, D134A, were entirely monodisperse. To test whether all five extracellular domains of N-cadherin (EC1-EC5) are necessary for the strong adhesive interaction between the complementary mutants, we compared the adhesive activity of the W2G mutant prepared as a full length (EC1-EC5) Fc fusion protein with that of the same mutant prepared as a truncated construct containing only cadherin domains EC1 and EC2.

The target in series [4] is T3, chicken N-cadherin Fc fusion protein with the pocket-blocking mutation A80I (chicken; human, UniProt P10288 165-728, A80I).
T3 construct: extracellular domain; also called A80I mutant; not shown: hinge region, CH2 and CH3 domains of human IgG1 heavy chain (vector pIgSig)
T3 sequence (looked up): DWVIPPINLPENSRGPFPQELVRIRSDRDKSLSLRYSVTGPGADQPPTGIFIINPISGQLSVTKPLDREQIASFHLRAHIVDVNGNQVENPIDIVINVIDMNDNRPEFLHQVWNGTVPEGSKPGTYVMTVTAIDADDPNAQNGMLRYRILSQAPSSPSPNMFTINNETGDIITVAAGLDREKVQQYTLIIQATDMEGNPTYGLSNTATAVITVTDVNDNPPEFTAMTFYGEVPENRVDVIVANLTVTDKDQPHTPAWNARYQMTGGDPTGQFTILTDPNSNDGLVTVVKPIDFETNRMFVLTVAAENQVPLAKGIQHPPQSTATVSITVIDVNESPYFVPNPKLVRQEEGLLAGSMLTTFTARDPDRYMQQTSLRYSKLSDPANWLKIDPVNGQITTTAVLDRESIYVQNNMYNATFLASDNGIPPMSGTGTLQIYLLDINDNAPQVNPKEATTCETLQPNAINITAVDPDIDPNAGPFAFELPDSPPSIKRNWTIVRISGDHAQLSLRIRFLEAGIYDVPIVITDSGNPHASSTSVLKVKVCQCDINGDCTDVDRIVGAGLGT
In words: bead aggregation assay, Protein A Dynabeads coated separately and mixed, 1.25 mM CaCl2. The protocol: as §2
In the experiments described so far in this example, disruption of the salt bridge prevented intramolecular docking of Trp 2 in one or both components of the dimer. In an alternative strategy to prevent intramolecular docking, we removed Trp2 by introducing the mutation W2G or blocked the hydrophobic acceptor pocket with an isoleucine side chain projecting into the cavity using the mutation A801. N-cadherin Fc fusion proteins with these mutations were then tested against our panel of K562 transfectants (FIG. 17a). In keeping with the explanation given in FIG. 5, the W2G mutant acted as a strand acceptor and therefore adhered strongly to the E89A mutant whereas the A80I mutant was a strand donor and adhered to the GG extension mutant. […]

Series [5] concerns the molecule itself. In words: gel filtration on Superdex-200, 1 mM CaCl2. An excerpt:
Soluble N-cadherin-Fc fusion protein was obtained by transient transfection of Cos7 Cells as previously described (Corps et al., 2003). […] Soluble N-cadherin-Fc was routinely quantitated using an ELISA for Fc, standardised against purified cadherin-Fc fusion proteins.

Series [6] deals with T1, full length chicken N-cadherin with the …. In words: adhesion of K562 transfectants to coated N-cadherin Fc. The protocol: as §1
Series [7] addresses T2, full length chicken N-cadherin with the …. In words: adhesion of K562 transfectants to N-cadherin Fc coated at 1 µg/ml; reversed by chelation of calcium. On the procedure: as §1

B1: chicken N-cadherin Fc fusion protein with the mutation E89A (Fc fusion, UniProt P10288 165-728, looked up)
chain: T3 sequence (looked up) with I80A, E89A
notes: extracellular domain; also called E89A mutant; E89A Fc fusion protein; not shown: hinge region, CH2 and CH3 domains of human IgG1 heavy chain (vector pIgSig)
For B1, the binding result is “binds” in series [1] and “no binding (tested: Fc fusion protein coated at 1 µg/ml)” in series [2].

B2: chicken N-cadherin-Fc fusion protein with the mutation W2G, dimeric (Fc fusion, UniProt P10288 165-728, looked up)
chain: T3 sequence (looked up) with W2G, I80A
notes: extracellular domain; Full length (EC1-EC5) Fc construct; also called W2G mutant; W2G protein; not shown: hinge region, CH2 and CH3 domains of human IgG1 heavy chain (vector pIgSig)
As for B2, the binding result in series [3], in series [2] and in series [4] was “binds” in each case.

B3: monomeric chicken N-cadherin-Fc with the double mutation W2G,D134A (Fc fusion, UniProt P10288 165-728, looked up)
chain: T3 sequence (looked up) with W2G, I80A, D134A
notes: extracellular domain; also called the double mutant W2G,D134A; not shown: hinge region, CH2 and CH3 domains of human IgG1 heavy chain (vector pIgSig)
Take B3: in series [5], the binding result is given as “no binding”.

B4: chicken N-cadherin Fc fusion protein with the N-terminus extended by two glycine residues (GG) (Fc fusion)
chain: GGDWVIPPINLPENSRGPFPQELVRIRSDRDKSLSLRYSVTGPGADQPPTGIFIINPISGQLSVTKPLDREQIASFHLRAHAVDVNGNQVENPIDIVINVIDMNDNRPEFLHQVWNGTVPEGSKPGTYVMTVTAIDADDPNAQNGMLRYRILSQAPSSPSPNMFTINNETGDIITVAAGLDREKVQQYTLIIQATDMEGNPTYGLSNTATAVITVTDVNDNPPEFTAMTFYGEVPENRVDVIVANLTVTDKDQPHTPAWNARYQMTGGDPTGQFTILTDPNSNDGLVTVVKPIDFETNRMFVLTVAAENQVPLAKGIQHPPQSTATVSITVIDVNESPYFVPNPKLVRQEEGLLAGSMLTTFTARDPDRYMQQTSLRYSKLSDPANWLKIDPVNGQITTTAVLDRESIYVQNNMYNATFLASDNGIPPMSGTGTLQIYLLDINDNAPQVNPKEATTCETLQPNAINITAVDPDIDPNAGPFAFELPDSPPSIKRNWTIVRISGDHAQLSLRIRFLEAGIYDVPIVITDSGNPHASSTSVLKVKVCQCDINGDCTDVDRIVGAGLGTG
notes: extracellular domain; also called GG extension mutant; GG mutant; not shown: hinge region, CH2 and CH3 domains of human IgG1 heavy chain (vector pIgSig)
As to B4, the binding result is “no binding (tested: Fc fusion protein coated at 1 µg/ml)” in series [6] and “binds” in series [7].
